The subject of data set [1] is HeLa Kyoto. Description: solubility in G1/S (NP-40 vs SDS abundance) (log2 ratio); higher = more soluble. The settings on record: cell cycle stage: G1/S.
For data set [2], the system named is HeLa Kyoto. Description: melting temperature (median over replicates), in situ; higher = more thermally stable.
The subject of data set [3] is HeLa Kyoto. The data set is described as follows: solubility change mitosis vs G1/S (difference of NP-40 vs SDS log2 ratios) (log2 ratio difference); higher = more soluble in mitosis.
The subject of data set [4] is HeLa Kyoto. The data set is described as follows: thermal stability score vs G1/S (z-score of summed log2 fold changes over temperatures); higher = more thermally stable than in G1/S.
Setting [5] is: cell cycle stage: early G1 (4.5 h after nocodazole release).

The values that follow come from the supplement of paper PMC5998384.
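Throughout, for melting temperature (median over replicates), in situ: HeLa Kyoto cells synchronized by double thymidine or nocodazole block, proteins quantified by TMT10plex mass spectrometry, three independent biological replicates.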
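Throughout, for solubility change mitosis vs G1/S (difference of NP-40 vs SDS log2 ratios): synchronized HeLa Kyoto cells (double thymidine block for G1/S, nocodazole release for mitosis), protein amounts in NP-40 versus SDS lysates quantified by mass spectrometry, three biological replicates.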
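Throughout, for solubility in G1/S (NP-40 vs SDS abundance): HeLa Kyoto cells arrested at G1/S by double thymidine block, proteins quantified by TMT10plex mass spectrometry in mild NP-40 versus SDS extracts, three biological replicates.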
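Throughout, for thermal stability score vs G1/S (z-score of summed log2 fold changes over temperatures): synchronized HeLa Kyoto cells, proteins quantified by TMT10plex mass spectrometry, three biological replicates, mitosis taken 0.5 h after nocodazole release, G1/S directly after double thymidine block.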

Turning to “MGNAAGSAEQPAGPAAPPPKQPAPPKQPMPAAGELEERFNRALNCMNLPPDKVQLLSQYDNEKKWELICDQERFQVKNPPAAYIQKLKSYVDTGGVSRKVAADWMSNLGFKRRVQESTQVLRELETSLRTNHIGWVQEFLNEENRGLDVLLEYLAFAQCSVTYDMESTDNGASNSEKNKPLEQSVEDLSKGPPSSVPKSRHLTIKLTPAHSRKALRNSRIVSQKDDVHVCIMCLRAIMNYQSGFSLVMNHPACVNEIALSLNNKNPRTKALVLELLAAVCLVRGGHDIILAAFDNFKEVCGEQHRFEKLMEYFRNEDSNIDFMVACMQFINIVVHSVENMNFRVFLQYEFTHLGLDLYLERLRLTESDKLQVQIQAYLDNIFDVGALLEDTETKNAVLEHMEELQEQVALLTERLRDAENESMAKIAELEKQLSQARKELETLRERFSESTAMGPSRRPPEPEKAPPAAPTRPSALELKVEELEEKGLIRILRGPGDAVSIEILPVAVATPSGGDAPTPGVPTGSPSPDLAPAAEPAPGAAPPPPPPLPGLPSPQEAPPSAPPQAPPLPGSPEPPPAPPLPGDLPPPPPPPPPPPGTDGPVPPPPPPPPPPPGGPPDALGRRDSELGPGVKAKKPIQTKFRMPLLNWVALKPSQITGTVFTELNDEKVLQELDMSDFEEQFKTKSQGPSLDLSALKSKAAQKAPSKATLIEANRAKNLAITLRKGNLGAERICQAIEAYDLQALGLDFLELLMRFLPTEYERSLITRFEREQRPMEELSEEDRFMLCFSRIPRLPERMTTLTFLGNFPDTAQLLMPQLNAIIAASMSIKSSDKLRQILEIVLAFGNYMNSSKRGAAYGFRLQSLDALLEMKSTDRKQTLLHYLVKVIAEKYPQLTGFHSDLHFLDKAGSVSLDSVLADVRSLQRGLELTQREFVRQDDCMVLKEFLRANSPTMDKLLADSKTAQEAFESVVEYFGENPKTTSPGLFFSLFSRFIKAYKKAEQEVEQWKKEAAAQEAGADTPGKGEPPAPKSPPKARRPQMDLISELKRRQQKEPLIYESDRDGAIEDIITVIKTVPFTARTGKRTSRLLCEASLGEEMPL [FMNL1]”, the “solubility in G1/S (log2)” value in the data set with HeLa Kyoto [1] is 0.507. Also, the melting temperature with HeLa Kyoto [2] (cell cycle stage: G1/S) worked out at 47.7 °C; with HeLa Kyoto [2] (cell cycle stage: mitosis), 48.1 °C. In addition, the “solubility change mitosis (log2)” value in the data set on HeLa Kyoto [3] was -0.0294. For the same sequence, the thermal stability score turned out to be 1.48 in the data set on HeLa Kyoto [4] (setting [5]) and 2.85 in the data set with HeLa Kyoto [4] (cell cycle stage: mitosis).
Regarding “MGNAGSMDSQQTDFRAHNVPLKLPMPEPGELEERFAIVLNAMNLPPDKARLLRQYDNEKKWELICDQERFQVKNPPHTYIQKLKGYLDPAVTRKKFRRRVQESTQVLRELEISLRTNHIGWVREFLNEENKGLDVLVEYLSFAQYAVTFDFESVESTVESSVDKSKPWSRSIEDLHRGSNLPSPVGNSVSRSGRHSALRYNTLPSRRTLKNSRLVSKKDDVHVCIMCLRAIMNYQYGFNMVMSHPHAVNEIALSLNNKNPRTKALVLELLAAVCLVRGGHEIILSAFDNFKEVCGEKQRFEKLMEHFRNEDNNIDFMVASMQFINIVVHSVEDMNFRVHLQYEFTKLGLDEYLDKLKHTESDKLQVQIQAYLDNVFDVGALLEDAETKNAALERVEELEENISHLSEKLQDTENEAMSKIVELEKQLMQRNKELDVVREIYKDANTQVHTLRKMVKEKEEAIQRQSTLEKKIHELEKQGTIKIQKKGDGDIAILPVVASGTLSMGSEVVAGNSVGPTMGAASSGPLPPPPPPLPPSSDTPETVQNGPVTPPMPPPPPPPPPPPPPPPPPPPPPLPGPAAETVPAPPLAPPLPSAPPLPGTSSPTVVFNSGLAAVKIKKPIKTKFRMPVFNWVALKPNQINGTVFNEIDDERILEDLNVDEFEEIFKTKAQGPAIDLSSSKQKIPQKGSNKVTLLEANRAKNLAITLRKAGKTADEICKAIHVFDLKTLPVDFVECLMRFLPTENEVKVLRLYERERKPLENLSDEDRFMMQFSKIERLMQKMTIMAFIGNFAESIQMLTPQLHAIIAASVSIKSSQKLKKILEIILALGNYMNSSKRGAVYGFKLQSLDLLLDTKSTDRKQTLLHYISNVVKEKYHQVSLFYNELHYVEKAAAVSLENVLLDVKELQRGMDLTKREYTMHDHNTLLKEFILNNEGKLKKLQDDAKIAQDAFDDVVKYFGENPKTTPPSVFFPVFVRFVKAYKQAEEENELRKKQEQALMEKLLEQEALMEQQDPKSPSHKSKRQQQELIAELRRRQVKDNRHVYEGKDGAIEDIITVLKTVPFTARTAKRGSRFFCEPVLTEEYHY [FMNL2]”, the “solubility in G1/S (log2)” value in the data set on HeLa Kyoto [1] was -0.0432. The sequence further yielded a melting temperature in the data set on HeLa Kyoto [2] (cell cycle stage: G1/S) of 50.8 °C. For the same sequence, the “solubility change mitosis (log2)” value with HeLa Kyoto [3] is -0.0897. Moreover, the thermal stability score was found to be 0.436 in the data set on HeLa Kyoto [4] (setting [5]) and 0.612 in the data set on HeLa Kyoto [4] (cell cycle stage: mitosis).
For “MGNGMCSRKQKRIFQTLLLLTVVFGFLYGAMLYYELQTQLRKAEAVALKYQQHQESLSAQLQVVYEHRSRLEKSLQKERLEHKKAKEDFLVYKLEAQETLNKGRQDSNSRYSALNVQHQMLKSQHEELKKQHSDLEEEHRKQGEDFSRTFNDHKQKYLQLQQEKEQELSKLKETVYNLREENRQLRKAHQDIHTQLQDVKQQHKNLLSEHEQLVVTLEDHKSALAAAQTQVAEYKQLKDTLNRIPSLRKPDPAEQQNVTQVAHSPQGYNTAREKPTREVQEVSRNNDVWQNHEAVPGRAEDTKLYAPTHKEAEFQAPPEPIQQEVERREPEEHQVEEEHRKALEEEEMEQVGQAEHLEEEHDPSPEEQDREWKEQHEQREAANLLEGHARAEVYPSAKPMIKFQSPYEEQLEQQRLAVQQVEEAQQLREHQEALHQQRLQGHLLRQQEQQQQQVAREMALQRQAELEEGRPQHQEQLRQQAHYDAMDNDIVQGAEDQGIQGEEGAYERDNQHQDEAEGDPGNRHEPREQGPREADPESEADRAAVEDINPADDPNNQGEDEFEEAEQVREENLPDENEEQKQSNQKQENTEVEEHLVMAGNPDQQEDNVDEQYQEEAEEEVQEDLTEEKKRELEHNAEETYGENDENTDDKNNDGEEQEVRDDNRPKGREEHYEEEEEEEEDGAAVAEKSHRRAEM [GOLIM4]”, in the data set on HeLa Kyoto [1], the “solubility in G1/S (log2)” value turned out to be 0.317. The figures for the melting temperature in the data set on HeLa Kyoto [2] (cell cycle stage: G1/S) and with HeLa Kyoto [2] (cell cycle stage: mitosis) were 54 °C and 53 °C, respectively. In addition, in the data set on HeLa Kyoto [3], the “solubility change mitosis (log2)” value is -0.0167. Further, the values for the thermal stability score with HeLa Kyoto [4] (setting [5]) and in the data set with HeLa Kyoto [4] (cell cycle stage: mitosis) were -2.18 and -3.71, respectively.
Take “MGNRGMEELIPLVNKLQDAFSSIGQSCHLDLPQIAVVGGQSAGKSSVLENFVGRDFLPRGSGIVTRRPLILQLIFSKTEHAEFLHCKSKKFTDFDEVRQEIEAETDRVTGTNKGISPVPINLRVYSPHVLNLTLIDLPGITKVPVGDQPPDIEYQIKDMILQFISRESSLILAVTPANMDLANSDALKLAKEVDPQGLRTIGVITKLDLMDEGTDARDVLENKLLPLRRGYIGVVNRSQKDIEGKKDIRAALAAERKFFLSHPAYRHMADRMGTPHLQKTLNQQLTNHIRESLPALRSKLQSQLLSLEKEVEEYKNFRPDDPTRKTKALLQMVQQFGVDFEKRIEGSGDQVDTLELSGGARINRIFHERFPFELVKMEFDEKDLRREISYAIKNIHGVRTGLFTPDLAFEAIVKKQVVKLKEPCLKCVDLVIQELINTVRQCTSKLSSYPRLREETERIVTTYIREREGRTKDQILLLIDIEQSYINTNHEDFIGFANAQQRSTQLNKKRAIPNQGEILVIRRGWLTINNISLMKGGSKEYWFVLTAESLSWYKDEEEKEKKYMLPLDNLKIRDVEKGFMSNKHVFAIFNTEQRNVYKDLRQIELACDSQEDVDSWKASFLRAGVYPEKDQAENEDGAQENTFSMDPQLERQVETIRNLVDSYVAIINKSIRDLMPKTIMHLMINNTKAFIHHELLAYLYSSADQSSLMEESADQAQRRDDMLRMYHALKEALNIIGDISTSTVSTPVPPPVDDTWLQSASSHSPTPQRRPVSSIHPPGRPPAVRGPTPGPPLIPVPVGAAASFSAPPIPSRPGPQSVFANSDLFPAPPQIPSRPVRIPPGIPPGVPSRRPPAAPSRPTIIRPAEPSLLD [DNM2]”: the “solubility in G1/S (log2)” value with HeLa Kyoto [1] was 0.212. For the same sequence, the figures for the melting temperature in the data set on HeLa Kyoto [2] (cell cycle stage: G1/S) and in the data set with HeLa Kyoto [2] (cell cycle stage: mitosis) were 50.5 °C and 50 °C, respectively. The “solubility change mitosis (log2)” value in the data set with HeLa Kyoto [3] is -0.144. Further, the thermal stability score worked out at 1.01 in the data set with HeLa Kyoto [4] (setting [5]) and 1.14 with HeLa Kyoto [4] (cell cycle stage: mitosis).
